In article PMC9418327, “Specificity of the Hox member Deformed is determined by transcription factor levels and binding site affinities”:

Assays:
[1] = biological target: T1, Dfd (Deformed);Exd (Extradenticle) (Drosophila melanogaster?;Drosophila …, UniProt P07548;P40427 1-586;1-376, |); assay: EMSA; Hth presence not stated; review file prints 6.85 and 6.65; 20 mM HEPES pH 7.9, 1.4 mM MgCl2, 1 mM ZnSO4, 40 mM KCl, 0.1 mM EGTA, 5% glycerol, 10 mM DTT, 0.1% NP40, 200 ng poly(dI-dC), 3 ug BSA, 2 pmol Cy5 dsDNA in 30 ul, on ice 20 min; 1% agarose-TBE gel at 4 C; settings: protein: recombinant;recombinant; tags: GST (pGEX-6P);His-myc; copies: 1;1; label: 5'-Cy5; blunt
T1 sequence (P07548 whole entry, chain 1 of 2): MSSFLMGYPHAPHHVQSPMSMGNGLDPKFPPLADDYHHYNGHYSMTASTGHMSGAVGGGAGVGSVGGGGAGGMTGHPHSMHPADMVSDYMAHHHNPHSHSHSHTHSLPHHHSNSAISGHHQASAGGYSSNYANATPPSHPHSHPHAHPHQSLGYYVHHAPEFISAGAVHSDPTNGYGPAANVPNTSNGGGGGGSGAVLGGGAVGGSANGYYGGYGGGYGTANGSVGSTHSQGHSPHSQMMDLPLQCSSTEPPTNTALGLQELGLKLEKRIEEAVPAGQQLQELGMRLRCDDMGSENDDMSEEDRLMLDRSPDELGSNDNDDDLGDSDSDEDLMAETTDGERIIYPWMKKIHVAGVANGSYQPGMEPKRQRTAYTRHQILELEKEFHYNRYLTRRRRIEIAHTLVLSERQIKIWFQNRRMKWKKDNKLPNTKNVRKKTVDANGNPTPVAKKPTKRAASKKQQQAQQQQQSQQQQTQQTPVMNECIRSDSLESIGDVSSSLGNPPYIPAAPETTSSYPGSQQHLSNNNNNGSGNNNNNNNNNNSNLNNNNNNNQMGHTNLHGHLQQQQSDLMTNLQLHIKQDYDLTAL
T1 sequence (P40427 whole entry, chain 2 of 2): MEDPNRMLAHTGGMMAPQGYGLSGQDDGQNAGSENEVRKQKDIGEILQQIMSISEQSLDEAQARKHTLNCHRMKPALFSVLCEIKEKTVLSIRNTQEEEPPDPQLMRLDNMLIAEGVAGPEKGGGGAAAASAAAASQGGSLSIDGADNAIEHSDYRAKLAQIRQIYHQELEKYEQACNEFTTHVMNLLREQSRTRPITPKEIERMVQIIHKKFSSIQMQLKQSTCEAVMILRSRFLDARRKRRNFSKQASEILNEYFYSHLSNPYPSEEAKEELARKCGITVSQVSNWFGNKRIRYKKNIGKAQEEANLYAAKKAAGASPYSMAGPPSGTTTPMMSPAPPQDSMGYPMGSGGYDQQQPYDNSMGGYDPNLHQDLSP

[2] = biological target: T2, Dfd (Deformed);Exd (Extradenticle);Hth (Homothorax) (Drosophila melanogaster?;Drosophila …, UniProt P07548;P40427;O46339 1-586;1-376;1-487, ||); assay: EMSA; binding abolished when all sites mutated; 20 mM HEPES pH 7.9, 1.4 mM MgCl2, 1 mM ZnSO4, 40 mM KCl, 0.1 mM EGTA, 5% glycerol, 10 mM DTT, 0.1% NP40, 200 ng poly(dI-dC), 3 ug BSA, 2 pmol Cy5 dsDNA in 30 ul, on ice 20 min; 1% agarose-TBE gel at 4 C; settings: protein: recombinant;recombinant;recombinant; tags: GST (pGEX-6P);His-myc;His-Flag; copies: 1;1;1; label: 5'-Cy5; blunt
T2 sequence (P07548 whole entry, chain 1 of 3): as the sequence (P07548 whole entry, chain 1 of 2) above
T2 sequence (P40427 whole entry, chain 2 of 3): as the sequence (P40427 whole entry, chain 2 of 2) above
T2 sequence (O46339 whole entry, chain 3 of 3): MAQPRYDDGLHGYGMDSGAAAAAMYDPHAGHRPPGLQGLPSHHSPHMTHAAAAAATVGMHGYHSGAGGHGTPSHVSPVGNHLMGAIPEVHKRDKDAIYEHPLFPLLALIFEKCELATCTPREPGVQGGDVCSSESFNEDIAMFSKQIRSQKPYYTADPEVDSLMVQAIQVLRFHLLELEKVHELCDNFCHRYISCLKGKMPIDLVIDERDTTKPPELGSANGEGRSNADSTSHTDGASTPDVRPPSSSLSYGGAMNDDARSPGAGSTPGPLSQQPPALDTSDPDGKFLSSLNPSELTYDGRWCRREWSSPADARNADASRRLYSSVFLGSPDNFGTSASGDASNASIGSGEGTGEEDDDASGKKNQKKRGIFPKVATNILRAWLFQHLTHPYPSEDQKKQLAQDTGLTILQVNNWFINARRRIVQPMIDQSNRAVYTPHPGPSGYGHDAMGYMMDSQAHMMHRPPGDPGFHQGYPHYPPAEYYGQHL

[3] = biological target: T1, Dfd (Deformed);Exd (Extradenticle); assay: EMSA; Hth presence not given; 20 mM HEPES pH 7.9, 1.4 mM MgCl2, 1 mM ZnSO4, 40 mM KCl, 0.1 mM EGTA, 5% glycerol, 10 mM DTT, 0.1% NP40, 200 ng poly(dI-dC), 3 ug BSA, 2 pmol Cy5 dsDNA in 30 ul, on ice 20 min; 1% agarose-TBE gel at 4 C; settings: protein: recombinant;recombinant; tags: GST (pGEX-6P);His-myc; copies: 1;1; label: 5'-Cy5; blunt
[4] = biological target: T2, Dfd (Deformed);Exd (Extradenticle);Hth …; assay: EMSA; 20 mM HEPES pH 7.9, 1.4 mM MgCl2, 1 mM ZnSO4, 40 mM KCl, 0.1 mM EGTA, 5% glycerol, 10 mM DTT, 0.1% NP40, 200 ng poly(dI-dC), 3 ug BSA, 2 pmol Cy5 dsDNA in 30 ul, on ice 20 min; 1% agarose-TBE gel at 4 C; settings: protein: recombinant;recombinant;recombinant; tags: GST (pGEX-6P);His-myc;His-Flag; copies: 1;1;1; label: 5'-Cy5; blunt

B1: oligo-E-11-H (dsDNA)
DNA 1: CTTCTTCGGATGATTAATGACGCGCGTTCAACAT
DNA 2: ATGTTGAACGCGCGTCATTAATCATCCGAAGAAG
Binder B1 has a Kd [1] of 6.7 nM.

B2: oligo-B-12-mt (dsDNA)
DNA 1: GACCGCAGAACCAAGCCGCCTATTGCCAGTGAAT
DNA 2: ATTCACTGGCAATAGGCGGCTTGGTTCTGCGGTC
B2: no binding [2].

B3: oligo-class-2-site (dsDNA)
DNA 1: TTCAGAGCGAATGATTAATGATCGGTCAAG
DNA 2: CTTGACCGATCATTAATCATTCGCTCTGAA
In the case of B3, the Kd [3] is reported as 9.12 nM.

B4: oligo-E-wt (site 11) (dsDNA)
DNA 1: CTTCTTCGGGCACCTAATGACGCGCGTTCAACAT
DNA 2: ATGTTGAACGCGCGTCATTAGGTGCCCGAAGAAG
For B4, the Kd [3] was 16.8 nM and the binding result [4] was “binds”.

B5: oligo-A-wt (site 1) (dsDNA)
DNA 1: TCTCAGCCTCGATAATTAACACACAAGCGCGGGG
DNA 2: CCCCGCGCTTGTGTGTTAATTATCGAGGCTGAGA
B5: binds [4].

B6: oligo-D-1-mt (D-9mut-10wt) (dsDNA)
DNA 1: TATAAAAGGCGGCAAATACTAATCTATTCTCGAT
DNA 2: ATCGAGAATAGATTAGTATTTGCCGCCTTTTATA
Binder B6 has a Kd [3] of 16.9 nM.

B7: oligo-D-wt (sites 9, 10) (dsDNA)
DNA 1: TATAAAAGCCATTAAATACTAATCTATTCTCGAT
DNA 2: ATCGAGAATAGATTAGTATTTAATGGCTTTTATA
B7: binds [4].

B8: oligo-D-1-mt-2-H (D-9mut-10H) (dsDNA)
DNA 1: TATAAAAGGCGGCATTGATTAATTAATTCTCGAT
DNA 2: ATCGAGAATTAATTAATCAATGCCGCCTTTTATA
B8 was tested, and the Kd [3] was 8.16 nM.
